In this experiment the target is GST fusion of human TRESK cytoplasmic loop (amino acids 174-280) (human) (UniProt Q7Z418). The experiment is described as follows: pull-down; GST-TRESK 174-280 on glutathione agarose; mouse brain cytosol; four pairs of independent assays; anti-tubulin β3 Western blot with densitometry (ImageJ).

The values that follow come from PMC4022642.

UniProt Q7Z418, sequence (Q7Z418 other isoform, or with tags, fused parts or gaps): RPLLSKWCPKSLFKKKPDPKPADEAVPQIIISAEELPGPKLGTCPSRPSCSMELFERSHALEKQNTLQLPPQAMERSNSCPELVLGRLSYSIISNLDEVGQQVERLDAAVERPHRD

For the substance “tubulin (mouse brain cytosol) (from UniProt P05213 1-451; Q9ERD7 1-450) (complex)”, the densitometry counts of the anti-tubulin β3 immunoblot worked out at 20500 counts.
